The values below come from patent US20230203177A1 (Bristol-Myers Squibb, published 2023).

One may read the Kd as the equilibrium constant for the complex coming apart. Low readings indicate tighter binding, high ones weaker binding. The term koff denotes the first-order rate constant of dissociation. Lower therefore signals slow dissociation. For orientation: kon means the rate constant with which the complex forms. Read a low kon as slower complex formation.

The target of experiment [1] is T1, soluble human CD40 extracellular domain (human, UniProt P25942 21-193).
T1 construct: Produced in house; also called hCD40; soluble hCD40 extracellular domain
As to the kind of experiment: SPR, purified Ab on protein A, 6 concentrations of hCD40 ECD, mean of 3. On the procedure: (§1) Additionally, to more accurately define the dissociation rate (kd), a longer dissociation time of 360 seconds (s) was used as opposed to the shorter 180 s dissociation that had been used in the supernatant screening experiment.
(§2) CD40 binding SPR: SPR studies of the purified antibodies were conducted on BIAcore™ T200 instrument (GE Healthcare, Chicago Ill.). A Series S Protein A sensor chip (GE Healthcare, Chicago Ill.) was equilibrated with SPR running buffer of 10 mM NaPO₄, 130 mM NaCl, 0.05% tween 20, (PBS-T) pH 7.2 at 25° C. The purified antibody samples were diluted to 3 μg/ml in PBS-T and captured on the protein A surface for 30 s at 10 μl/min Binding of 3.91, 7.81, 15.6, 31.3, 62.5, and 125 nM human CD40 extracellular domain (produced in house) was evaluated using association time of 180 s at 30 μl/min, followed by a dissociation time of 360 s at 30 μl/min Regeneration between cycles was accomplished using two 15 s injections of 10 mM glycine pH 1.5. […] Data were analyzed using BIAcore™ T200 evaluation software by fitting to a 1:1 Langmuir model.
For orientation: In SPR one partner is held on a chip, and binding of the other changes the refractive index at the surface.

For experiment [2], the target named is human CD40 on primary human tonsillar B cells (human, UniProt P25942 21-277). As to the kind of experiment: cell-based or functional assay.
The target in experiment [3] is T1, soluble human CD40 extracellular domain. As to the kind of experiment: SPR, purified Ab on protein A chip, soluble hCD40 ECD analyte, Fc4-1, n=3 global fit. On the procedure:
as §2, with “A” for “CD40 binding SPR: SPR studies of the purified antibodies were conducted on BIAcore™ T200 instrument (GE Healthcare, Chicago Ill.). A”, “[…] After priming the system, the 3 μg/ml” for “The purified”, “were” for “were diluted to 3 μg/ml in PBS-T and”, “50 nM” for “3.91, 7.81, 15.6, 31.3, 62.5,”, “500” for “125”, “180” for “360”

The target is the same in experiment [4]. As to the kind of experiment: SPR, purified Ab on protein A, 6 concentrations of hCD40 ECD, mean of 3; purified antibody, mean of three measurements. How it is done: as §1, §2
The target is the same in experiment [5]. As to the kind of experiment: SPR, Ab captured from supernatant on protein A, hCD40 ECD analyte; antibody captured out of supernatant. How it is done:
The titer data (Table 21) were used to normalize the antibody concentration in each supernatant to 3 μg/ml, and these antibodies were captured out of the supernatants on a protein A CMS Series S sensor chip (GE Healthcare), and tested for binding to two concentrations (5 nM and 50 nM) of soluble hCD40 extracellular domain.
(§3) CD40 binding SPR of antibody supernatants: Surface plasmon resonance (SPR) studies were conducted on a BIAcore™ T200 instrument (GE Healthcare, Chicago Ill.). A Series S Protein A sensor chip (GE Healthcare, Chicago Ill.) was equilibrated with SPR running buffer of 10 mM NaPO₄, 130 mM NaCl, 0.05% tween 20, (PBS-T) pH 7.2 at 25° C. The 96 antibody supernatants were normalized to a concentration of 3 μg/ml by diluting with PBS-T using a PerkinElmer JANUS® G3 system (PerkinElmer, Akron, Ohio). After priming the system, the 3 μg/ml antibody samples were captured on the protein A surface for 30 s at 10 μl/min Binding of 50 nM and 500 nM human CD40 extracellular domain (produced in house) was evaluated using association time of 180 s at 30 μl/min, followed by a dissociation time of 180 s at 30 μl/min Regeneration between cycles was accomplished using two 15 s injections of 10 mM glycine pH 1.5. […] Data were analyzed using BIAcore™ T200 evaluation software by fitting to a 1:1 Langmuir model.

Experiment [6] shares this target. As to the kind of experiment: SPR, purified Ab on protein A chip, soluble hCD40 ECD analyte, Fc3-1, n=3 global fit.
For experiment [7] the target is unchanged. Nature of the experiment: SPR, purified Ab on protein A chip, soluble hCD40 ECD analyte, Fc2-1, n=3 global fit. On the procedure:
as §3, with “A” for “CD40 binding SPR of antibody supernatants: Surface plasmon resonance (SPR) studies were conducted on a BIAcore™ T200 instrument (GE Healthcare, Chicago Ill.). A”, “The 96 antibody supernatants were normalized to a concentration of 3 μg/ml by diluting with PBS-T using a PerkinElmer JANUS® G3 system (PerkinElmer, Akron, Ohio).” left out

The target is the same in experiment [8]. As to the kind of experiment: SPR, antibody captured from supernatant on protein A chip, soluble hCD40 ECD at 5 and 50 nM (summary table of the 16 chosen antibodies).
Experiment [9] shares this target. As to the kind of experiment: SPR, purified Ab on protein A, 6 concentrations of hCD40 ECD. On the procedure: as §1, §2
Experiment [10] shares this target. As to the kind of experiment: SPR, Ab captured from supernatant on protein A, hCD40 ECD analyte. The gist of the method: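 Biacore T200, 25 °C, PBS-T pH 7.2; antibodies (3 μg/ml, supernatants titre-normalised) captured on protein A chip 30 s. Human CD40 ECD analyte (5 and 50 nM, or 50 and 500 nM), 180 s association and 180 s dissociation at 30 μl/min; 1:1 Langmuir fit.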

Positions count from the first letter of the chain named. In names and notes the source's numbering stands.

Chain of human CD40 on primary human tonsillar B cells (P25942 21-277 limits assumed): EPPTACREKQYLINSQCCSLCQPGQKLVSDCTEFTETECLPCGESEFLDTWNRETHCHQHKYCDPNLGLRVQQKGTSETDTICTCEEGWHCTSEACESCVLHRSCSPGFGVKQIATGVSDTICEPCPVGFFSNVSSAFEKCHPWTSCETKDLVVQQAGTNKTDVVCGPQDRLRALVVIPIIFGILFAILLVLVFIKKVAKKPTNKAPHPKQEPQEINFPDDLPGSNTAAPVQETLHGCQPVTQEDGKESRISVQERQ
T1 sequence (P25942 21-193 limits assumed): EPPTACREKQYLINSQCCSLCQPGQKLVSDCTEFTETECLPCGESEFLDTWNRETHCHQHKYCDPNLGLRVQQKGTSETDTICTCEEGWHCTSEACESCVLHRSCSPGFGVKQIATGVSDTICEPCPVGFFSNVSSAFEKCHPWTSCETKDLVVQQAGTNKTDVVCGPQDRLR

B1: BMS-986325 (antibody, human IgG1, kappa)
heavy: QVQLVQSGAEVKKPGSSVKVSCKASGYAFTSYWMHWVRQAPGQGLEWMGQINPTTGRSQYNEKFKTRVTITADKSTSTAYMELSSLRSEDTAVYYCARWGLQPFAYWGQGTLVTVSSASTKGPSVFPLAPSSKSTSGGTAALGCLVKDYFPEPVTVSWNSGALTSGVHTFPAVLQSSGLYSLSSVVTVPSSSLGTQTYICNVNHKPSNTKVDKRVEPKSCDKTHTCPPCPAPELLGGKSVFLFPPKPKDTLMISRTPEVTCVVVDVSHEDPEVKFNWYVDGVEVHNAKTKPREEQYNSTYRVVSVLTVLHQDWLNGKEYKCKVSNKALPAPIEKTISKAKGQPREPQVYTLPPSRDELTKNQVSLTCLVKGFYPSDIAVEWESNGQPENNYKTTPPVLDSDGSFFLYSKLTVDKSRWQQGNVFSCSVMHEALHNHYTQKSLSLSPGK
light: DIQMTQSPSFLSASVGDRVTITCKASQDVSTAVAWYQQKPGKAPKLLIYSASYRYTGVPSRFSGSGSGTDFTLTISSLQPEDFATYYCQQHYSTPWTFGGGTKVEIKRTVAAPSVFIFPPSDEQLKSGTASVVCLLNNFYPREAKVQWKVDNALQSGNSQESVTEQDSKDSTYSLSSTLTLSKADYEKHKVYACEVTHQGLSSPVTKSFNRGEC
notes: IgG1-P238K; purified lots and supernatant M1 treated as one molecule; also called M1 (wt); Y12XX-hz28
In the case of B1, in experiment [1], the Kd was determined as 3.1 nM and the off-rate (koff) turned out to be 0.00066 s⁻¹. Also, in experiment [2], the “IC50, inhibition of tonsillar human B cell proliferation stimulated by IZ-hCD40L trimer (BMS-986325-WT P1-071223-1 lot 1)” value came out at 0.0012 µg/mL; the “IC50, inhibition of tonsillar human B cell proliferation stimulated by IZ-hCD40L trimer (BMS-986325-WT P1-071223-3 lot 3)” value is 0.0056 µg/mL; the “IC50, inhibition of tonsillar human B cell proliferation stimulated by IZ-hCD40L trimer (BMS-986325 P1-073346-1)” value came to 0.0014 µg/mL; the “IC50, inhibition of tonsillar human B cell proliferation stimulated by hCD40L expressing CHO cells (BMS-986325-WT P1-071223-1 lot 1)” value was found to be 0.042 µg/mL. In experiment [2], the “IC50, inhibition of tonsillar human B cell proliferation stimulated by hCD40L expressing CHO cells (BMS-986325-WT P1-071223-3 lot 3)” value came to 0.0314 µg/mL and the “IC50, inhibition of tonsillar human B cell proliferation stimulated by hCD40L expressing CHO cells (BMS-986325 P1-073346-1)” value was determined as 0.047 µg/mL. In [3], this molecule returned a Kd of 4.4 nM, a koff of 0.00091 s⁻¹ and a kon of 210000 M⁻¹ s⁻¹. Further, the kon in [4] amounted to 220000 M⁻¹ s⁻¹. The molecule also registered an equilibrium dissociation constant (Kd) in experiment [5] of 4.2 nM. In experiment [6], this molecule gave a Kd of 4.5 nM, an off-rate constant (koff) of 0.00091 s⁻¹ and a kon of 200000 M⁻¹ s⁻¹. For the same molecule, in [7], binding was put at a Kd of 4.4 nM, the koff was 0.00087 s⁻¹ and the kon stood at 200000 M⁻¹ s⁻¹.

B2: M80 (HC-K63Q / LC-R61Q) (antibody, human IgG1, kappa, V domains shown)
VH: QVQLVQSGAEVKKPGSSVKVSCKASGYAFTSYWMHWVRQAPGQGLEWMGQINPTTGRSQYNEQFKTRVTITADKSTSTAYMELSSLRSEDTAVYYCARWGLQPFAYWGQGTLVTVSS
VL: DIQMTQSPSFLSASVGDRVTITCKASQDVSTAVAWYQQKPGKAPKLLIYSASYRYTGVPSQFSGSGSGTDFTLTISSLQPEDFATYYCQQHYSTPWTFGGGTKVEIKR
notes: IgG1-P238K; also called HC16/LC5
Consider B2, for which, in [8], the Kd is 4.1 nM. Also, in experiment [2], the “IC50, inhibition of tonsillar human B cell proliferation stimulated by IZ-hCD40L trimer” value was found to be 0.0164 µg/mL and the “IC50, inhibition of tonsillar human B cell proliferation stimulated by hCD40L expressing CHO cells” value was 0.369 µg/mL. In experiment [9], this molecule came in with a Kd of 2.9 nM, a koff of 0.0007 s⁻¹ and a kon of 240000 M⁻¹ s⁻¹. The molecule further had an equilibrium dissociation constant (Kd) in [10] of 4.1 nM.

B3: M63 (HC-R67Q / LC-K45Q,R54Q,R61Q) (antibody, human IgG1, kappa, V domains shown)
VH: B2 VH with Q63K, R67Q
VL: B2 VL with K45Q, R54Q
notes: IgG1-P238K; also called HC15/LC4
Take B3: the Kd in [8] was found to be 2.4 nM. In addition, in [2], the “IC50, inhibition of tonsillar human B cell proliferation stimulated by IZ-hCD40L trimer” value worked out at 0.0057 µg/mL and the “IC50, inhibition of tonsillar human B cell proliferation stimulated by hCD40L expressing CHO cells” value was determined as 0.208 µg/mL. In [9], this molecule registered a dissociation constant Kd of 1.8 nM, a koff of 0.00073 s⁻¹ and an on-rate (kon) of 400000 M⁻¹ s⁻¹. Also, the Kd in experiment [10] turned out to be 2.4 nM.

B4: M62 (HC-K74T / LC-K45Q,R54Q,R61Q) (antibody, human IgG1, kappa, V domains shown)
VH: B2 VH with Q63K, K74T
VL: B2 VL with K45Q, R54Q
notes: IgG1-P238K; also called HC14/LC4
B4 displayed a Kd in [8] of 3.1 nM. Moreover, in experiment [2], the “IC50, inhibition of tonsillar human B cell proliferation stimulated by IZ-hCD40L trimer” value turned out to be 0.0062 µg/mL and the “IC50, inhibition of tonsillar human B cell proliferation stimulated by hCD40L expressing CHO cells” value turned out to be 0.356 µg/mL. In experiment [9], this molecule yielded a Kd of 2.2 nM, a koff of 0.00066 s⁻¹ and a kon of 300000 M⁻¹ s⁻¹. The same molecule registered a Kd in experiment [10] of 3.1 nM.

B5: M81 (HC-wt / LC-K107Q,R108Q) (antibody, human IgG1, kappa)
heavy: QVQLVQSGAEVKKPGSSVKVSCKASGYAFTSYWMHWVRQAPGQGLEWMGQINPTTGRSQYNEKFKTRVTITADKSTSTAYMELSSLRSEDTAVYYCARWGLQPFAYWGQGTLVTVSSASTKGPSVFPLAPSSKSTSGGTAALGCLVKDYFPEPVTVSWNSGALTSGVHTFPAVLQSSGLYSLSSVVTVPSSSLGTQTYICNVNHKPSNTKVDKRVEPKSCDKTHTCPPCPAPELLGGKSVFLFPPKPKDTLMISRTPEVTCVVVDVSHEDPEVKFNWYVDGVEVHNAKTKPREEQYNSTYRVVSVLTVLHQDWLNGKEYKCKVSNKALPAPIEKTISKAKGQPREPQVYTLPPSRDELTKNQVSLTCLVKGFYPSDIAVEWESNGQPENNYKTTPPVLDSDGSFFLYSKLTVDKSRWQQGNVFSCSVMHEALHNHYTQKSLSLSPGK
light: B1 light with K107Q, R108Q
notes: IgG1-P238K; also called HC1/LC6
With B5, the affinity in experiment [8], expressed as Kd, was 4.1 nM. Further, in [2], the “IC50, inhibition of tonsillar human B cell proliferation stimulated by IZ-hCD40L trimer” value came out at 0.0007 µg/mL and the “IC50, inhibition of tonsillar human B cell proliferation stimulated by hCD40L expressing CHO cells” value is 0.0257 µg/mL. In experiment [9], the Kd was found to be 3 nM, the koff stood at 0.0007 s⁻¹ and the kon was 240000 M⁻¹ s⁻¹. The same molecule came in with a Kd in experiment [10] of 4.1 nM.
